Legend:
[1] = molecular target: Caulobacter crescentus full length DriD, tag-free (Caulobacter crescentus); assay: mass photometry
[2] = molecular target: Caulobacter crescentus full length DriD, tag-free (Caulobacter crescentus); assay: cross-linking
[3] = molecular target: Caulobacter crescentus full length DriD with His-tag (Caulobacter crescentus); assay: SEC
[4] = molecular target: DriD(L10E) with His-tag (Caulobacter crescentus); assay: SEC
[5] = molecular target: DriD(V73P-F74P) with His-tag (Caulobacter crescentus); assay: SEC
DriD(V73P-F74P) = molecular target: T1, DriD(V73P-F74P) (Caulobacter crescentus, UniProt Q9A999 5-331, V77P;F78P); assay: fluorescence polarization
T1 sequence: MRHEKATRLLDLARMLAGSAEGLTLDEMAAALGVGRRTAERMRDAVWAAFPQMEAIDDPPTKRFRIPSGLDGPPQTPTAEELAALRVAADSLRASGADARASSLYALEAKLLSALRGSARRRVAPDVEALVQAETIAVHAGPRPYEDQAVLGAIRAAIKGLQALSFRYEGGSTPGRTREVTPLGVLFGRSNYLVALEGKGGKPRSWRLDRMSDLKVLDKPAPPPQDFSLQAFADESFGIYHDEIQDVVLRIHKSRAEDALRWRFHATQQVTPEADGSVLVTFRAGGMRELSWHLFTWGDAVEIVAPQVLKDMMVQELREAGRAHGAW

DriD(T61A-K62A) = molecular target: T2, DriD(T61A-K62A) (Caulobacter crescentus, UniProt Q9A999 5-331, T65A;K66A); assay: fluorescence polarization
T2 sequence: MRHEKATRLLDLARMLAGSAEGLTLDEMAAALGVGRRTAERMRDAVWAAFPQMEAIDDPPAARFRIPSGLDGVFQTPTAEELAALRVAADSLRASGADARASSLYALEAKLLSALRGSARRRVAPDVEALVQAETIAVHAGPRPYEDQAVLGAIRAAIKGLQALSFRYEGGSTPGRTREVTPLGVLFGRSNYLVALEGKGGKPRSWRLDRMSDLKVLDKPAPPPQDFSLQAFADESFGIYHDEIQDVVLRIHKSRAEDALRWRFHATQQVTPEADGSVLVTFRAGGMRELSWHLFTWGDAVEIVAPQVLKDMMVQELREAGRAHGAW

DriD(L10E) = molecular target: T3, DriD(L10E) (Caulobacter crescentus, UniProt Q9A999 5-331, L14E); assay: fluorescence polarization
T3 sequence: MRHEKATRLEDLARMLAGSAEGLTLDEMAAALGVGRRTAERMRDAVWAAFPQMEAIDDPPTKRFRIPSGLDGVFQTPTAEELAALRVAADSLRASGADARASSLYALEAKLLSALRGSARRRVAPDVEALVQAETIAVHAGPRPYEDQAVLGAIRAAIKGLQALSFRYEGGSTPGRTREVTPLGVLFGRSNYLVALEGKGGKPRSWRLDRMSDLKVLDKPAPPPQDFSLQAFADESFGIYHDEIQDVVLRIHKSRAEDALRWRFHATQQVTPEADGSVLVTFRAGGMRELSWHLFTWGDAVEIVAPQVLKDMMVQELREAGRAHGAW

DriD WT [6] = molecular target: T4, DriD WT (Caulobacter crescentus, UniProt Q9A999 5-331); assay: fluorescence polarization
T4 sequence: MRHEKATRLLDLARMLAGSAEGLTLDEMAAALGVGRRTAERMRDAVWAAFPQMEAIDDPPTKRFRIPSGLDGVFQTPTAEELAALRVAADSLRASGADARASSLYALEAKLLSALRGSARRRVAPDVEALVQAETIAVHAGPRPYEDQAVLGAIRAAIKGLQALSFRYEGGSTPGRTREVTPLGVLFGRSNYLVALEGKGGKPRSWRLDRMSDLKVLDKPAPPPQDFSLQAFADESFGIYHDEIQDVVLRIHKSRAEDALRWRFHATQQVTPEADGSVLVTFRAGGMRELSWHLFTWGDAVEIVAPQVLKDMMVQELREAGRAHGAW

DriD(E40K) = molecular target: T5, DriD(E40K) (Caulobacter crescentus, UniProt Q9A999 5-331, E44K); assay: fluorescence polarization
T5 sequence: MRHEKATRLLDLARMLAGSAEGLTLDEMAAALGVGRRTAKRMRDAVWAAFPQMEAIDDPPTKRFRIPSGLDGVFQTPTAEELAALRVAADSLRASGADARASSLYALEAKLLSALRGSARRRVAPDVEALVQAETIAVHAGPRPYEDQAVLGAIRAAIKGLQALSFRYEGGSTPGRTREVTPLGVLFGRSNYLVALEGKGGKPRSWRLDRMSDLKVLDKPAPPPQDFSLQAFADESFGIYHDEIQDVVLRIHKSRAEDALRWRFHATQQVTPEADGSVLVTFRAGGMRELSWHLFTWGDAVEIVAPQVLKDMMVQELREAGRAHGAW

DriD(E40A) = molecular target: T6, DriD(E40A) (Caulobacter crescentus, UniProt Q9A999 5-331, E44A); assay: fluorescence polarization
T6 sequence: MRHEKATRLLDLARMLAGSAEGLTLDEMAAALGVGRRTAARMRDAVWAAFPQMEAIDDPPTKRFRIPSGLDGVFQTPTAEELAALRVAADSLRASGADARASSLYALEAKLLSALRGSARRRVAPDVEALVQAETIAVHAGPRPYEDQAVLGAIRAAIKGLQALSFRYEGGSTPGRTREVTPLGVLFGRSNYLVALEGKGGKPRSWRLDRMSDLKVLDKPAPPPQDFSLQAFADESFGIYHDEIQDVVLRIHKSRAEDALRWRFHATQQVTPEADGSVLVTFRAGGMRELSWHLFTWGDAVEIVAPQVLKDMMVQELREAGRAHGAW

DriD WT [7] = molecular target: T4, DriD WT; assay: X-ray crystallography 2.74 A
DriD WT [8] = molecular target: T4, DriD WT; assay: fluorescence polarization; remark: listed apart in the source

## Caulobacter crescentus full length DriD, tag-free (natural protein)
[1]
  stoichiometry N: 2
[2]
  stoichiometry N: 2

## Caulobacter crescentus full length DriD with His-tag (natural protein)
[3]
  stoichiometry N: 2

## DriD(L10E) with His-tag (natural protein)
[4]
  stoichiometry N: 2

## DriD(V73P-F74P) with His-tag (natural protein)
[5]
  stoichiometry N: 2

B1: driD promoter 21 bp site (FP) (dsDNA)
DNA 1: ATACGACAGTTACTGTCGTAT
DNA 2: ATACGACAGTAACTGTCGTAT
DriD(V73P-F74P)
  Kd: 133 ± 10.4 nM
DriD(T61A-K62A)
  Kd: 1200 ± 200 nM
DriD(L10E)
  Kd: 120 ± 23.6 nM
DriD WT [6]
  Kd: 1.6 ± 0.04 nM
DriD(E40K)
  binding signal: 83 fold reduction vs WT protein
DriD(E40A)
  binding signal: 7 fold reduction vs WT protein

## TGTCTAT (ssDNA) [7mer ssDNA effector]
DriD WT [7]
  binding result: binds

B2: C4/G12 to T/A (dsDNA)
DNA 1: ATACGATAGTTACTATCGTAT
DNA 2: ATACGATAGTAACTATCGTAT
DriD WT [6]
  Kd: 962 ± 182 nM

B3: G2/C14 to A/T (dsDNA)
DNA 1: ATACAATAGTTACTATTGTAT
DNA 2: ATACAATAGTAACTATTGTAT
DriD WT [6]
  Kd: 512 ± 227 nM

B4: position 3/13 mutant (T3/A13 to C/G in text) (dsDNA)
DNA 1: ATACGGCAGTTACTGCCGTAT
DNA 2: ATACGGCAGTAACTGCCGTAT
DriD WT [6]
  Kd: 7.1 ± 0.9 nM

B5: C1/G15 to T/A (dsDNA)
DNA 1: ATATGACAGTTACTGTCATAT
DNA 2: ATATGACAGTAACTGTCATAT
DriD WT [6]
  Kd: 6.9 ± 1.7 nM

B6: GC-rich center mutant (dsDNA)
DNA 1: ATACGACGGCCGCCGTCGTAT
DNA 2: ATACGACGGCGGCCGTCGTAT
DriD WT [8]
  binding signal: 20 fold reduction vs WT site

Source: article PMC10853764
